B1: RAD51AP1 (RAD51 associated protein 1), full-length wild type [not stated] / RAD51 recombinase [not stated] (parent complex)
chain 1: MVRPVRHKKPVNYSQFDHSDSDDDFVSATVPLNKKSRTAPKELKQDKPKPNLNNLRKEEIPVQEKTPKKRLPEGTFSIPASAVPCTKMALDDKLYQRDLEVALALSVKELPTVTTNVQNSQDKSIEKHGSSKIETMNKSPHISNCSVASDYLDLDKITVEDDVGGVQGKRKAASKAAAQQRKILLEGSDGDSANDTEPDFAPGEDSEDDSDFCESEDNDEDFSMRKSKVKEIKKKEVKVKSPVEKKEKKSKSKCNALVTSVDSAPAAVKSESQSLPKKVSLSSDTTRKPLEIRSPSAESKKPKWVPPAASGGSRSSSSPLVVVSVKSPNQSLRLGLSRLARVKPLHPNATST
chain 2: MAMQMQLEANADTSVEEESFGPQPISRLEQCGINANDVKKLEEAGFHTVEAVAYAPKKELINIKGISEAKADKILAEAAKLVPMGFTTATEFHQRRSEIIQITTGSKELDKLLQGGIETGSITEMFGEFRTGKTQICHTLAVTCQLPIDRGGGEGKAMYIDTEGTFRPERLLAVAERYGLSGSDVLDNVAYARAFNTDHQTQLLYQASAMMVESRYALLIVDSATALYRTDYSGRGELSARQMHLARFLRMLLRLADEFGVAVVITNQVVAQVDGAAMFAADPKKPIGGNIIAHASTTRLYLRKGRGETRICKIYDSPCLPEAEAMFAINADGVGDAKD

In this experiment the parent is B1. Kind of experiment: BLI; RAD51 about 2.5 µM (highest point, read from the x axis); read off a plot.
In the case of chain 1 MVRPVRHKKPVNYSQFDHSDSDDDFVSATVPLNKKSRTAPKELKQDKPKPNLNNLRKEEIPVQEKTPKKRLPEGTFSIPASAVPCTKMALDDKLYQRDLEVALALSVKELPTVTTNVQNSQDKSIEKHGSSKIETMNKSPHISNCSVASDYLDLDKITVEDDVGGVQGKRKAASKAAAQQRKILLEGSDGDSANDTEPDFAPGEDSEDDSDFCESEDNDEDFSMRKSKVKEIKKKEVKVKSPVEKKEKKSKSKCNALVTSVDSAPAAVKSESQSLPKKVSLSSDTTRKPLEIRSPSAESKKPKWVPPAASGGSRSSSSPLVVVSVKSPNQSLAAGASRLARVKPLHPNATST [chain 1 R333A, chain 1 L334A, chain 1 L336A], the response is ~0.005 nm.

(Values after article PMC12704761, “RAD51AP1 is a versatile RAD51 modulator” (Proceedings of the National Academy of Sciences of the …, 2025).)
